Experimental data: the NTF2 design screens of Basanta et al. (2020)

Experiment: protease stability score; higher = more stable; yeast display proteolysis, trypsin and chymotrypsin;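 note: log10 excess protease needed over predicted unfolded state with 0 meaning unfolded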

Sequence | protease stability score
DETDLERWARTFIEVFQTGDENRFRKMVDPNARLNVGEKNVHGKEEMAKAAKKLRDKVDHMHVRDLQINPPTIEIHIDFHHNGQKRSQVYYVEMHNGRVTEIHVQTS | 1.05
DETDLLRKLIHHLKTAVDEGDPDKYVKNFDPNAKIDVGDKQWHGHDEIRKKMEDLVRQADHVRLTIDHMQVQGDKFNIHATIKYDNNGEDVERKFVLTATKKGDKAKAEFVTEQ | 0.895
DETDQVETLLKRFKEAVDHGDKHQARHLFRDDVRIKYGDKEIHGRDNLAHWIVDRARRADHVDFTIRQFDVRNGRVSVDVEVRYDVNGKHDHKRYTLRADLRNGRATAVTIEVR | 0.344
DETDTAKDFAEELRTIFESNDFKRYQQLFDPNAKIHVGEKRLHGDRRVNNLIKEIFDRADHLHFDLREFEVKGEKVRIRYVEKQKINGKDETRDVVMVAVKQGDKMYITEVRHQ | 1.13
DETEAKKNVEVVEQNDWDTFEDQVDENAKMKVGDKEIHGREQFSEFADNMKKNADHVEVKSVDRRGDEINIEMVVSVNGKRVTYVVQFVVNNGKIHDVQFDARSEDDERFLKEVQS | 0.619
DETEDKKAQQLAKAINDGDEHDVRKMMDKDVKVDVGDKQLHGREQAAKWMSRHRREQRRTIEVTDVKMHGEKAELDANLRVDVNGQPRTHRVRIIVSITNGRLQHLEIHMDPRFEQSVQS | -0.25
DETEEVQKLVHRWRQAMEDGNPDDLRKNMDEDAEMRYGDKSWHGRENIAQNLHKERQRADSISITIEDMDHENGKAVVHLNITFTVNGRKETKRYDLDVEVNGDKLKIKQIQQE | 0.247
DETEHAKRLAEEFVRNVETGDESRLVELADPNAKFEVGDTTVHGMEDYAHNMHKRRNEADHFDFKVKSVHVSNGNIRVDIDYRVNHNGKVEKQRMVIYMTKHGDKYRIKKIEVS | -0.082
DETEIRLFHQFLRAIETNDEERAQQLADEDARYRYGNKEIDGMTQFQEDMDDKHKEARYSYSIDSVHDEPNRVVVEARAMVKINGKPTTYQVELHAHFHNGRMKKFTASVPEETLQSIRS | 0.054
DETEKADQMVHDLEEAIKTGDPDEISNQADPNVSFHYGDKTFHGREKLAEWFLELQKRVDHMHLDIKDIEVQGDKATITMQMVLDKNGDDERKDIRVEAQYHNGRLTISFAEAR | 2.15
DETEKAKRFFDEWLKALHRGDPDEVKKLADPNVRFEVGDKEIHGRSNMAKHVTDLRKRADSFSASIDSIDIKGEKVVIDAKLTYNHNGRKTHNKVEFDAKVHNGKIKLKEIIVR | -0.257
DETEKAKTFMDELRKVLQTGDEEQISRNMDPNARLNVGDKTIHGRERLAKEMSDEVKRADHIDIKVKSISVHNGKVRVDFFFTLEYNGQHRRTRRIMHADISDGQIKIKQIHDN | 1.4
DETELRKMQEVQEHNDPDEWKKQADKDVRLKVGNKRLHGREDVHRYLKTHRDQADHIRYKSFDFDGDKADITFHAVVNGRTFEANQEIRIHNGRIQEVNIHYTDDQVQRELEELFG | -0.195
DETEQAKKLLNDIENIFRTGDPKQLEKLAPPDVDVRVGDKEVHGKEQVVEELQRRQESFDHIEFNLHRVSVSGDKYRLDYEVRFDHNGRTETYRVVVVYVNNNGRLQDKSMTIK | 0.684
DETETMEQMIQDLHRALQQGDHETVKELIPPDAEMQIGDKTWHGKEQVARHLVEHAQTADHIDIDIKSIKIEGNKLVVNLKVVYDRNGHRETQTYELMVDVNNGEFRIVEQRQP | 0.921
DETEVAHRFLNQERRNWKTGNRQSFENMFRDNVRAQYGDKTVTGREDMKRWLDRILKEVDHVRIEIKDLKREPGRVSLDVVVVFEHNGHKDKKRYVIDAVASGDKMIIDQVQDK | 0.165
DETEWREFAEEFIRLFQQGDEDRLRKLIDKNAKIRYGDREVDGRDSIAKQIRDNREQIDRIDLVDMKVRGEHITITIDVDHNGQRRRIVIHINVHNGHIKNVEVDSG | 1.02
DETHDAHRKAEEIITALRTGDPKQAESLVPENVKIDVGDKTIHGKEQYSKEFKKFTDRVDKVEVRIKHVHVQGDKIKIRMEARENVDGQDKRYQFVLIFDRHNGKDQAVSIKVD | 1.02
DETHKAKEMLKEFHTAVSKGDEDRYSNLLDENVHITYGDKTVHGREEAVKLFTELQERADHVDVDVVSVDVKGETVKARIRINFVYDGREDRHEFTLIAIVDNGRFVIKSIIQK | 1.22
DETHLKLLEHFFKQWMTGNQQELRSLADPNVEYVYGEHRVRGREQMAKDLVRELHEMTISMRSVTSDIRGDQAVVTVNFQQDKNGEPDEVNVKMRAEVHNGRIKSMNAKFHQ | -0.287
DETIHDQAQRFFRDVQTGDEENIHKYFDPNARFVVGDKDLHGMSEVAEDLARKWNEWRVDVRDYRIKVHNGRIEVHIDARFDHDGQPEDRSEVVVYTMKNGQVQMVEFHKQG | 0.464
DETKAAQVAAELISAIVHGDTDRALELADKDVRADIGENKVHGREEMHKMVEQYDKSVDHASVKTYKVSGNSVKVNVEVTHNGRKRTVDFTAEAHNGKAKQVTAEVK | -0.768
DETKDTEAAERYLENFKTGDPKKLANQFDKNAKVVVGDNEIHGREELQRNNESFVKRVDHIDLQTVDMRGDKFRYQVVIKINGNSVIVNYSIVMHNGKFERNHVDPKDMDRLKQ | 0.363
DETKLMTELAEKLNRVIQKNNPDEARKLMDPNARQQVGDTRYHGNEQLAEYMKDMHERYDHVEVDVKDVNVSGDHATLEAKVHFRHNGKNTTINQNIVATIHNGKVVLKQVTSK | 0.465
DETKQAERVAETEKRIWERGDPDKLNEMFDPNVRIDVGDKEVNGREKLKEYIERILTQVDHVRLNFTSISVHNGSVELKYTLVREDNGRRRRDTFVIHMELHNGQARVTSVRRG | 0.405

Sequence | protease stability score
DETKQQELIHRLLEALETGNPDEYIKNLDKDVRVVVGDTEVHGREDLKKLFERLTHQIDHQHIKDYKVSNGQADVKLVVVNNGQERRLTIKIVVRNGHVKEVVWNDR | 1.77
DETKVKKLAETVIKILFSGDKKTAKDLLKPNVKFEALDVELHGPDQVRKYYDKVKKHGAEMHVQRNEVKGNTAEVEYVLKVGGTEIKVKATLYVKDEKVDKAEVNNSEEYKKYVQKG | -0.018
DETKVKKLVVHVAQVLMSGQVDEAQKFLNPDVEFHAGNVTLHGPEQVLEYYKKIQKRGVEFHVKEAEVHGNTVEVKYDVKFDGTEQTLKFKAEVKDTVVEKAELEIDEDYVRAVQKG | 1.11
DETLFELIQRLIEAYKHGNPDELKKQADPNARVKVGDKELHGMEEIAKELVTQRKQQRLSYLSINNDDDPNHARVRFNVEVERNGQPRTKRFELRAETHNGRLISMEVQSRR | 0.232
DETNERVARTMLEVRQHNNPDDLRKMLDPNVKVVIGDKEVHGREDYINKFEERVKHIRVDVKVDHIDSQGNRLDIDVTFTMNVNGQPVKDRMRFVIQITNGKIEEVDVSVPEEELKKQEK | 0.909
DETNKEQFDRLLKHQKTGNPQEVVKNADPNVKMRIGNKTWHGRENINQDVERRRRKMRIDINVKSVDSHGEELRIDARVQYNINGKPLEDDVVIIAEVHNGKFKHIEVRIPERMQKKLER | 0.637
DETNKKAVEDYIKALETGDDEMAKRLMDKNATVEIGDKEVTGREEIHEQFKRDVKEIRVRIDRVHVKDQGDKVNLRAREKQTVNGHPISFEFQVEFHAHNGKIKHVEWQIDKDQLRKLKG | 0.119
DETNLKKVLDVLKDNDEKKLEELADEDAKNDIGNFDYRGRRQFEEAMRHRRKMIDSLEVKSVRADGDKAEIDMSAVINGREVKASQMVKVHNGRIKSISVRFTDPDKEREADKKAQ | 0.023
DETNRKQASRVLENLQTGDPRQVSELVDPNARVTVGDKQVTGRENIMQRVKHELDQSRIQIDHYEIDDKGESADLRMTQQVDHNGNPTRTKYQVEVEAENGKIKEITIEERS | -0.271
DETNVKNAEEWLRALQDNNSEQLRKLMDKDVRVEIGDDVIKGREDVVTNLIRKARELRFRIKVDKIEDDNGKVVVHAEATFTHNGKPDRVEVELVFSLDNGKIKEVVVKTDG | 1.69
DETNVRSVERFVHALKQGDPDKLHRNADPNVKVQIGDKVIHGREELSKDQKRRNKSMRLSYKDYRNEDTNGNVIVHLTFTSERDGQPRENEYRAHITLNNGKIREVDMKSDG | -0.288
DETQDKKAERLVKKNNWDEMVRNADKDVRVQVGDYEVHGREDMKRLAKKFKDRYDHVKVDDVQVHNGRVNADMKATVDGHTIRFILQADIHNGRFKYMTLQARSSEQEKHLKRLFQ | 0.475
DETQLRIASEFEEAVRRGNEEQAKRNVDPNARVRVGDTEVHGNEQIAKKIRQEVEHARVSVKSVTNHTDENRVVIDVEFEATHNGEPTSKKYQVNIEIRNGKIKEINYHDSK | -0.157
DETQMDHIRRFFEAVVNGDPDELERQADPNVKFSVGNQQWHGENQLKKEAEKRRKEIRINIKSMEVRVHGDSVVVHIRQEVEVNGQPEDITFTMTVEVSNGKIKSVDVQMDQQEERNVQR | -0.342
DETQMKHLAEEFNKAQKRGNEEKLRELIDKDVTMKVGDKEVHGRERVADKMRKMIERADSISIRDVKSQGDRAEIDMEYRVDGRHRVVIVILRFSNGRIVYAEFQSS | 1.08
DETQRAEEFFKRMQKLAHTNNFEHLANMADPNANFRVGDKTFHGRRDMIRQQKQIRERVDHVEYDVRRIDVHGNELDIKLEVNYDVNGKKDTRTVHYNAENNNGDVVISRVEYK | 0.127
DETREAQEIAKRIHKAVEENDEKQLEDQMPPDASVEVGDKTIHGRSRIARELWEEVETADHVNVSITSIRVDGDKVHVDMRYQFDDNGDDDVKHQKAQYVRNGDHFVLKNVHRK | -0.225
DETRMRELDKVFHHNDPDKMRENLDENVRMVVGDKSFTGRHQVQDWLKIFHDQVDHFEVESLTKEGNKIDVVYRAVVNGQEFRMRVDITVHNGRIKMIKVDFTNEDETRQFLEHIK | 1.55
DETRQAKDMVSELRKALKQGDEDKAMKLADPNVRLDVGEKDLHGRERLKEWVTEIRDKYDRVDLKVTHVHVRGNKIVVHAEVVMRRNGHQKTMTLTIVVRLQGDHLHIVEITQR | 0.803
DETTEASKLLHRINTAWQTNDPDQFQEQFDENARAKVGDKTVHGRKNMNELLKRLVENVDHIDVQVVDFRVDGDKLVIYFRVQNEHNGKHEHDQYAIWAVDRNGHVRAIEWHES | 0.272
DETTVHHILKNFNEAMEQGDPKQAMRLADKDVKLDVGDKRVSGSETLDTLVKNIRDQADTISVKTVHVDGDTAHAVLVIRINGKDVEFNVRIEVHNGRIKSLEMDPDKLKSAMK | 0.852
DETVEELIKRFMRAIKNNNPDELVRNADKDAKYDIGDKTIHGREQLHDHVEHLRDEMQIDYEVENLKVHNGRADVDVKNNNNHNGRPETKRLRLDVVVHNGKIKDVKFQDTR | 0.243
DETVLQVVHRFLKAVETGDPKEVRKNADPNAKAVVGDQTVSGRETLAHQIEREREEMSFEWEKVTNDVQGEHVDVDFTMRMTHNGRPDRSRVRIKYQVHNGKLTYVRVTDDK | -0.149
DEVEKAKNLFDRLVRAFKNNNWKQFSDLADEDVRYVVGDKEWHGREQADEMFREMVEEIDHYDIHVKDIKFHNGKVDLKATASFSVNGKTHRFTVEWRVQMHNGHLRVKQVILK | 1.25
DEVTRAEELLHEIQEAFRTGDEDQARRLADENVQIHVGDKFVRGRRDYVKRLKDEVDRVDHMEVHIKSVDVHGDKATMDYRVRVQFDGQSKERDVVMYAKISNGQLKVTSLTEK | 0.012
